Read-outs that look alike come from different tables or passages of the source.
Legend:
[1] = target: T1, human CD8 on human T cells (human, UniProt P01732 22-235); test: cell-based or functional assay
[2] = target: T1, human CD8 on human T cells; test: flow cytometry, CD8+ T cells in human PBMCs, 1 h, PE anti-IL12
Protocol: Fusion proteins 02A01-IgG-IL12 (LC) and 03A01-IgG-IL12 (LC) were evaluated for their ability to specifically target IL12 to CD8⁺ T cells. […] The cells were incubated with media lacking a fusion protein as a negative control. Following 1 hour of incubation with the IL12 fusion constructs, the cells were washed once with complete RPMI medium and prepared for flow cytometry analysis. Cells were washed once with phosphate-buffered saline (PBS) containing 1% bovine serum albumin (PBS/BSA) and then stained with a 1:100 dilution of PE-conjugated anti-IL12 antibody (Clone No. C11.5; BioLegend Cat. No. 501807) in PBS/BSA. Following a 20 minute incubation at room temperature, the cells were washed once with PBS/BSA and then resuspended in PBS/BSA for analysis on a FACSCelesta using Diva software (BD Biosciences). Binding activity was quantified and represented as the mean fluorescent intensity values of IL-12 on either CD8⁺ T cells or NK cells. […] At a saturating dose, there was a 4- to 5-fold more IL-12 bound to CD8⁺ T cells than was bound to NK cells.

[3] = target: T1, human CD8 on human T cells; test: cell-based or functional assay; remark: listed apart in the source
[4] = target: T2, cynomolgus monkey CD8 on cynomolgus cells (cynomolgus monkey); test: cell-based or functional assay
[5] = target: T1, human CD8 on human T cells; test: flow cytometry, CD8+ T cells in human PBMCs, 30 min 37 °C, anti-IL-12p40
Protocol: (§1) Fusion proteins H6K3-IgG-IL12 (LC) and H6K3-IgG-IL12 (1×HC) were also evaluated for their ability to bind CD8-expressing cells in human and cynomolgus monkey PBMCs. Briefly, 5×10⁴ human PBMCs (StemCell Technologies) or cynomolgus monkey PBMCs (iQ Biosciences) were incubated with 7 serial 5-fold dilutions of one of the two aforementioned H6K3-IgG-IL12 constructs for 30 minutes at 37° C. Cells were washed twice with MACS buffer and stained with viability dye and fluorophore-conjugated antibodies against IL-12 and cell-surface markers for 20 minutes at 4° C. Cells were analyzed on a FACSCelesta using Diva software (BD Biosciences). Binding activity for all treatments was quantified and represented as the mean fluorescence intensity values of IL-12 on human CD8+ T cells and NK cells (FIGS. 17A-17B) and on cynomolgus monkey CD8+ T cells and NK cells (FIGS. 17C-17D). For the H6K3-IgG-IL12 (LC) treatments, results are also reported as the frequency of IL-12+CD8+ T cells and NK cells (FIG. 17E). As shown in FIGS. 17A-17D, both H6K3-IgG-IL12 (LC) and H6K3-IgG-IL12 (1×HC) were able to selectively bind human CD8+ T cells over NK cells at a range of concentrations. […] Where the cells were incubated with 0.128 nM of the IL-12 fusion constructs, the number of live CD45+ cells staining as CD8+ and IL-12 were assessed by flow cytometry. […]

[6] = target: T2, cynomolgus monkey CD8 on cynomolgus …; test: flow cytometry, CD8+ T cells in cynomolgus PBMCs, 30 min 37 °C, anti-IL-12p40
Protocol: as §1

[7] = target: T1, human CD8 on human T cells; test: flow cytometry, CD8+ T cells in human PBMCs, 30 min 37 °C, anti-human IL-12 AF647
Protocol: Fusion proteins H6K3-IgG-IL12 (LC) and H6K3-IgG-IL12 (1×HC) were evaluated for their ability to selectively bind human CD8+ T cells in PBMCs. Briefly, 5×10⁴ human PBMCs (StemCell Technologies) were incubated with 7 serial 5-fold dilutions of one of the two aforementioned H6K3-IgG-IL12 constructs for 30 minutes at 37° C. Cells were washed twice with MACS buffer and stained for 20 minutes at 4° C. with fluorophore-conjugated anti-CD3, anti-CD4, anti-CD8, anti-CD56, and anti-IL12 antibodies, and viability dye. Cells were analyzed on a FACSCelesta using Diva software (BD Biosciences). Binding activity was quantified and represented as the mean fluorescent intensity values of IL-12 on either CD8+ T cells or NK Cells. As shown in FIGS. 16A-16B, both H6K3-IgG-IL12 (LC) and H6K3-IgG-IL12 (1×HC) were able to selectively bind human CD8+ T cells over NK cells at a range of concentrations.

[8] = target: T2, cynomolgus monkey CD8 on cynomolgus …; test: flow cytometry, NK cells in cynomolgus PBMCs (CD8-expressing by paragraph 442), 30 min 37 °C, anti-IL-12p40
Protocol: as §1

[9] = target: T1, human CD8 on human T cells; test: cell-based or functional assay; remark: listed apart in the source
[10] = target: T1, human CD8 on human T cells; test: cell-based or functional assay; remark: listed apart in the source
[11] = target: T1, human CD8 on human T cells; test: flow cytometry, human PBMC co-cultured 1 h with the fusion protein, anti-IL2 staining gated on CD8 T cells (IL2 loading, MFI)
Protocol: (§2) Anti-human CD8-human IL2 molecules were evaluated for their ability to specifically bind and load IL2 on CD8 T cells. Briefly, 1×10⁵ human PBMC were co-cultured with indicated CD8-IL2 (human FC receptor) molecules from one of the concentrations ranging from 0.05 pM to 0.4 nM. Following one hour incubation with molecules, PBMC were washed twice with RPMI complete medium and washed once with PBS. The washed cells were stained with anti-IL2 (MQ1-17H12), anti-human kappa (MHK-49) and lineage surface markers CD3(UCHT1), CD4(SK3) and NK(HCD56) for 20 minutes, after which the cells were washed and analyzed using a flow cytometer. The binding affinity was quantified and represented as mean fluorescence intensity (MFI).

[12] = target: T1, human CD8 on human T cells; test: flow cytometry, human PBMC co-cultured 1 h with the fusion protein, anti-human kappa staining on CD8 T cells (CD8 antibody binding, MFI)
Protocol: as §2

mouse CD8 on mouse cells = target: T3, mouse CD8 on mouse cells (mouse, UniProt P01731 28-247); test: flow cytometry of peripheral blood, B16-F10-bearing mice, 4 days after the first dose (in vivo)
T3 construct: whole, on cells; also called mCD8
T3 sequence (P01731 28-247): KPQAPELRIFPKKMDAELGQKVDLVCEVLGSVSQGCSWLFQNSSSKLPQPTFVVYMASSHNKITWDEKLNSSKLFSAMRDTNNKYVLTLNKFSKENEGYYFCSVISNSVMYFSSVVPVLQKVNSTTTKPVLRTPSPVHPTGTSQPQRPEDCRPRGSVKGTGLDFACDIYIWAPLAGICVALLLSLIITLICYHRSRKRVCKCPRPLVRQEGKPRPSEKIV
Protocol: Mice were injected weekly for a total of 4 doses, at a dose equivalent to 10 μg of recombinant IL12. Tumor volume was measured twice per week, and mice were euthanized if tumor volume exceeded 2000 mm³. […] Specifically, in the MC38 model, treatment with the CD8IgG-IL12 (LC) Clone 2 construct controlled tumor growth up to day 21 and yielded 3/8 complete responders, whereas treatment with the CD8IgG-IL12 (1× HC) construct controlled tumor growth for the entire duration of the study and yielded 7/8 complete responders (FIGS. 6A-6C). In the B16-F10 model, which is typically less responsive to immunotherapy, both constructs limited tumor growth for up to 14 days after the initial dose (FIGS. 7A-7C).
In the same study, the two anti-CD8:IL-12 fusion constructs were also evaluated for their ability to be retained in tissues. Peripheral blood cells were collected from MC38 and B16-F10 tumor-bearing mice 4 days after administration of the first dose of the IL-12 construct. Samples were analyzed by flow cytometry. In the case of the MC38 tumor-bearing mice, IL-12 was detected on the surface of CD8+ T cells 4 days post-treatment with either of the two anti-CD8:IL-12 fusion protein constructs, but not on the surface of CD4+ T cells or NK cells (FIG. 8A). […]

T1 sequence (P01732 22-235): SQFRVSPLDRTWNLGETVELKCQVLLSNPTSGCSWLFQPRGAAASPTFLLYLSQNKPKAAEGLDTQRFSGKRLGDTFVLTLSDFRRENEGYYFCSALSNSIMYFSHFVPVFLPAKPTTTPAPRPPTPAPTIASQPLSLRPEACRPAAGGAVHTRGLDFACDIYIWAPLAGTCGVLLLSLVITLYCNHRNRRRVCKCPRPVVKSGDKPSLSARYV

B1: 03A01-IgG-IL12 (LC) (other)
VH: DVQFQESGPGLVKPSQSLSLTCTVTGYSITSDFAWNWIRQFPGNELEWMGYISYSGDTNYNPSLRSRISITRDTSKNQFFLQLDSVTTEDTATYYCTIRGYYTDSAFVFWGQGTLVTVSA
VL: DIQMTQSSSYLSVSLGGRVTITCKASDHINNWLAWYQQKPGNAPRLLISGATSLETGVPSRFTGSGSGLDYTLSITSLQTEDVATYYCQQYWNSPFTFGSGTKLEIK
notes: 03A01 IgG with human IL-12p70 linked to the C-terminus of each light chain; human IgG1 Fc with L234A, L235A, P329G, N297A; also called 03A01 IgG IL12p70 (LC)
With B1 the “EC50 of pSTAT4 signaling in human CD8+ T cells” value [1] was 14.7 pM and the “EC50 (read off the curve)” value [2] was about 0.2 nM.

B2: H6K3-IgG-IL12 (1×HC) (other)
VH: EVQLVQSGAEVKKPGATVKISCKASGYTFTDFTMHWVQQAPGKGLEWIGLVNPNNGGNIYAEKFQGRVTLTVDTSTSTAYMELSSLRSEDTAVYYCGRVPLYTSHGMDYWGQGTLVTVSS
VL: EIVLTQSPATLSLSPGERATISCRASESVDSYDINSMHWYQQKPGQAPRLLIYRASHLQSGIPARFSGSGSRTDFTLTISSLEPEDFATYYCQQSNEDPLTFGQGTKLEIK
notes: Humanized 02A01 VH6/VK3 IgG1 with one human IL-12p70 on the C-terminus of the knob heavy chain; Fc with L234A, L235A, P329G, N297A and T366W / T366S, L368A, Y407V; not tied to this name; also called hCD8IgG-1×IL12 (HC); hCD8IgG-IL12 (1 × HC)
In the case of B2, the “EC50 of pSTAT4 signaling in human CD8+ T cells” value [3] is reported as 2.3 pM, the “EC50 of pSTAT4 signaling in cynomolgus CD8+ T cells” value [4] is reported as 2.3 pM and the “EC50 of pSTAT4 signaling in cynomolgus NK cells” value [4] is reported as 2 pM. The “EC50 (read off the curve)” value [5] was about 0.05 nM, the “EC50 (read off the curve)” value [6] was about 0.05 nM and the “EC50 (read off the curve)” value [7] was about 0.06 nM. The “EC50 (read off the curve)” value [8] was about 0.1 nM.

B3: hCD8 IgG IL2 1× (HC) (other)
VH: B2 VH
VL: B2 VL
notes: read as humanized 02A01-VH6-VK3; One wild type human IL-2 on one heavy chain C-terminus; also called hCD8 IgG-IL2(HC)
In the case of B3, the “EC50 of pSTAT5 activation in human CD8+ T cells” value [9] is reported as 0.448 pM, the “EC50 of Ki67 expression (proliferation) in human CD8+ T cells” value [10] is reported as 0.0689 nM and the “EC50 (read off the curve)” value [11] is reported as about 0.03 nM. The “EC50 (read off the curve)” value [12] was about 0.03 nM.

B4: H6K3-IgG-IL12 (LC) (other)
VH: B2 VH
VL: B2 VL
notes: Humanized 02A01 VH6/VK3 IgG1 with human IL-12p70 on each light chain C-terminus; Fc with L234A, L235A, P329G, N297A; not tied to this name; also called hCD8IgG-IL12 (LC)
In the case of B4, the “EC50 of pSTAT4 signaling in human CD8+ T cells” value [3] is reported as 3.3 pM, the “EC50 of pSTAT4 signaling in cynomolgus CD8+ T cells” value [4] is reported as 1.8 pM and the “EC50 of pSTAT4 signaling in cynomolgus NK cells” value [4] is reported as 2.4 pM. For the same binder, the “EC50 (read off the curve)” value [5] was about 0.03 nM, the “EC50 (read off the curve)” value [6] was about 0.05 nM and the “EC50 (read off the curve)” value [7] was about 0.04 nM.

B5: hCD8 IgG IL2 (LC) (other)
VH: B2 VH
VL: B2 VL
notes: read as humanized 02A01-VH6-VK3; Wild type human IL-2 on each light chain C-terminus
With B5 the “EC50 of pSTAT5 activation in human CD8+ T cells” value [9] was 0.246 pM, the “EC50 of Ki67 expression (proliferation) in human CD8+ T cells” value [10] was 0.0551 nM and the “EC50 (read off the curve)” value [11] was about 0.03 nM. For the same binder, the “EC50 (read off the curve)” value [12] was about 0.03 nM.

B6: 02A01-IgG-IL12 (LC) (other)
VH: EVQLQQSGPELVKPGASLKISCKASGYTFTDFTMHWVKQSHGKSLEWIGLVNPNNGGNIYNQNFKGKATLTVDTSSSTAYMELRSLTSEDSSVYYCGRVPLYTSHGMDYWGQGTSVTVSS
VL: DIVLTQSPAFLAVSLGQRATISCRASESVDSYDINSMHWYQQKPGQPPKLLIYRASHLQSGIPARFSGSGSRTDFTLTINFVEADDVATYYCQQSNEDPLTFGAGTKLELK
notes: 02A01 IgG with human IL-12p70 linked to the C-terminus of each light chain; human IgG1 Fc with L234A, L235A, P329G, N297A; also called 02A01 IgG IL12p70 (LC)
In the case of B6, the “EC50 of pSTAT4 signaling in human CD8+ T cells” value [1] is reported as 2.72 pM and the “EC50 (read off the curve)” value [2] is reported as about 0.01 nM.

B7: rIL-12 (ligand)
alpha: RVIPVSGPARCLSQSRNLLKTTDDMVKTAREKLKHYSCTAEDIDHEDITRDQTSTLKTCLPLELHKNESCLATRETSSTTRGSCLPPQKTSLMMTLCLGSIYEDLKMYQTEFQAINAALQNHNHQQIILDKGMLVAIDELMQSLNHNGETLRQKPPVGEADPYRVKMKLCILLHAFSTRVVTINRVMGYLSSA
beta: MWELEKDVYVVEVDWTPDAPGETVNLTCDTPEEDDITWTSDQRHGVIGSGKTLTITVKEFLDAGQYTCHKGGETLSHSHLLLHKKENGIWSTEILKNFKNKTFLKCEAPNYSGRFTCSWLVQRNMDLKFNIKSSSSSPDSRAVTCGMASLSAEKVTLDQRDYEKYSVSCQEDVTCPTAEETLPIELALEARQQNKYENYSTSFFIRDIIKPDPPKNLQMKPLKNSQVEVSWEYPDSWSTPHSYFSLKFFVRIQRKKEKMKETEEGCNQKGAFLVEKTSTEVQCKGGNVCVQAQDRYYNSSCSKWACVPCRVRS
notes: untargeted control; also called rmIL-12; non-targeted recombinant mouse IL-12; copies: 1 + 1
B7: no binding (tested: dose equivalent to 10 µg IL-12, i.v.) (mouse CD8 on mouse cells).
